# Measurements from PMC2756588.
# T1: Abp1, P15891
# T1 sequence (P15891 535-592, looked up): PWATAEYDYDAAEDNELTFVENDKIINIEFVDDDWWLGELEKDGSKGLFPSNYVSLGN
# T2: Bbc1, P47068
# T2 sequence (P47068 1-78, looked up): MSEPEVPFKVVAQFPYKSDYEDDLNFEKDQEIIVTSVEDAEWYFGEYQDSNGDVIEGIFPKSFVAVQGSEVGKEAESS
# T3: Boi1, P38041
# T3 sequence (P38041 1-86, looked up): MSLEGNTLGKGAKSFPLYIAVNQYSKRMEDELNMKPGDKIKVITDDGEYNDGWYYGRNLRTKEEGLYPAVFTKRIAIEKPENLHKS
# T4: Boi2, P39969
# T4 sequence (P39969 32-116, looked up): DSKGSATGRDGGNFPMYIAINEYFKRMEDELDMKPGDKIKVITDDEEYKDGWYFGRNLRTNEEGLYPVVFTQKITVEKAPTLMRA
# T5: Bud14, P27637
# T5 sequence (P27637 247-328, looked up): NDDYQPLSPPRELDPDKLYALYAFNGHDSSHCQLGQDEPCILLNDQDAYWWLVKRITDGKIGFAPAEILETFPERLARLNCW
# T6: Bzz1-1, P38822
# T6 sequence (P38822 478-572, looked up): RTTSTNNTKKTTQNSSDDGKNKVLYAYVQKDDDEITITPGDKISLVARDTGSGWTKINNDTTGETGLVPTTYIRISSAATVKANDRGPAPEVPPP
# T7: Bzz1-2, P38822
# T7 sequence (P38822 568-633, looked up): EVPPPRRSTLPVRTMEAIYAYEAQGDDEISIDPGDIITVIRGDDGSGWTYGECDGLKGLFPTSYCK
# T8: Cdc25, P04821
# T8 sequence (P04821 50-136, looked up): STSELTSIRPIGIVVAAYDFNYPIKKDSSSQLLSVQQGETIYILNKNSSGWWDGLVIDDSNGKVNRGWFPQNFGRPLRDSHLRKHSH
# T9: Cyk3, Q07533
# T9 sequence (Q07533 1-83, looked up): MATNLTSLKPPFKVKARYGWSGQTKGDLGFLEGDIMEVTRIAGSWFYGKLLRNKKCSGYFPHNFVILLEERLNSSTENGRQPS
# T10: Fus1, P11710
# T10 sequence (P11710 432-512, looked up): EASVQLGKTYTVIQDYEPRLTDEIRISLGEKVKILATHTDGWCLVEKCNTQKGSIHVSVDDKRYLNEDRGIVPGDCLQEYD
# T11: Hof1, Q05080
# T11 sequence (Q05080 590-669, looked up): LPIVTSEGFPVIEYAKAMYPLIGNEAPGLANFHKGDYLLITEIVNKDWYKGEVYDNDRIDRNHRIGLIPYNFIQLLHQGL
# T12: Hse1, P38753
# T12 sequence (P38753 208-285, looked up): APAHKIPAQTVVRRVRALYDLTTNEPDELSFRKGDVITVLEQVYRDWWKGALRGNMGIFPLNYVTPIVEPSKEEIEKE
# T13: Lsb1, P53281
# T13 sequence (P53281 45-122, looked up): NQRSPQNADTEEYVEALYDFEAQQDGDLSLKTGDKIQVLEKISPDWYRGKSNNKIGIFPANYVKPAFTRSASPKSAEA
# T14: Lsb3, P43603
# T14 sequence (P43603 385-451, looked up): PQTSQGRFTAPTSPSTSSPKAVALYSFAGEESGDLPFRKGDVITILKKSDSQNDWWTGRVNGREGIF
# T15: Lsb4, P32793
# T15 sequence (P32793 402-468, looked up): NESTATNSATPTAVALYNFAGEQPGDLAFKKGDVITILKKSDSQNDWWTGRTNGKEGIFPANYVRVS
# T16: Myo5, Q04439
# T16 sequence (Q04439 1072-1160, looked up): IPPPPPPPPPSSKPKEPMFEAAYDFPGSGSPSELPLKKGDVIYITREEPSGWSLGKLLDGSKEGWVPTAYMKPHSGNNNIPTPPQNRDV
# T17: Nbp2, Q12163
# T17 sequence (Q12163 103-180, looked up): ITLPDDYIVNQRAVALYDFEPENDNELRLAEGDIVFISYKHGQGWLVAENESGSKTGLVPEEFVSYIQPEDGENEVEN
# T18: Pex13, P80667
# T18 sequence (P80667 295-386, looked up): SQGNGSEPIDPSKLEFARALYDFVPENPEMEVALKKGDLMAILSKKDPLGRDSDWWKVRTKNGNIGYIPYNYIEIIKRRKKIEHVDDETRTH
# T19: Pin3, Q06449
# T19 sequence (Q06449 53-122, looked up): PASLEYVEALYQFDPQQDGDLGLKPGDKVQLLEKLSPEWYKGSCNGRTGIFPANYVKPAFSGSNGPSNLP
# T20: Sla1-2, P32790
# T20 sequence (P32790 60-140, looked up): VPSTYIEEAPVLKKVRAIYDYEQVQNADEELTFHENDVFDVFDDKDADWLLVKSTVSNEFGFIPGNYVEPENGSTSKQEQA
# T21: Sla1-3, P32790
# T21 sequence (P32790 344-424, looked up): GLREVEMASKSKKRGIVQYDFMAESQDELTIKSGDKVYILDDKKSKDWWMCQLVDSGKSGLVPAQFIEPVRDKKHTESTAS
# What was measured:
# Experiment in all cases: SPOT array
# [1] = biological target: T1, Abp1, P15891; settings: median of control spots 935
# [2] = biological target: T2, Bbc1, P47068; settings: median of control spots 796
# [3] = biological target: Bem1-1, P29366; settings: median of control spots 4282
# [4] = biological target: Bem1-2, P29366; settings: median of control spots 4347
# [5] = biological target: T3, Boi1, P38041; settings: median of control spots 1162
# [6] = biological target: T4, Boi2, P39969; settings: median of control spots 1161
# [7] = biological target: T5, Bud14, P27637; settings: median of control spots 956
# [8] = biological target: T6, Bzz1-1, P38822; settings: median of control spots 4446
# [9] = biological target: T7, Bzz1-2, P38822; settings: median of control spots 4538
# [10] = biological target: T8, Cdc25, P04821; settings: median of control spots 969
# [11] = biological target: T9, Cyk3, Q07533; settings: median of control spots 1451
# [12] = biological target: T10, Fus1, P11710; settings: median of control spots 1200
# [13] = biological target: GST; settings: median of control spots 978
# [14] = biological target: T11, Hof1, Q05080; settings: median of control spots 4086
# [15] = biological target: T12, Hse1, P38753; settings: median of control spots 1727
# [16] = biological target: T13, Lsb1, P53281; settings: median of control spots 388
# [17] = biological target: T14, Lsb3, P43603; settings: median of control spots 406
# [18] = biological target: T15, Lsb4, P32793; settings: median of control spots 397
# [19] = biological target: Myo3, P36006; settings: median of control spots 468
# [20] = biological target: T16, Myo5, Q04439; settings: median of control spots 471
# [21] = biological target: T17, Nbp2, Q12163; settings: median of control spots 357
# [22] = biological target: T18, Pex13, P80667; settings: median of control spots 1341
# [23] = biological target: T19, Pin3, Q06449; settings: median of control spots 2171
# [24] = biological target: Rvs167, P39743; settings: median of control spots 2707
# [25] = biological target: Sho1, P40073; settings: median of control spots 1148
# [26] = biological target: T20, Sla1-2, P32790; settings: median of control spots 712
# [27] = biological target: T21, Sla1-3, P32790; settings: median of control spots 5475
# Bem1-2, P29366, sequence (P29366 139-227): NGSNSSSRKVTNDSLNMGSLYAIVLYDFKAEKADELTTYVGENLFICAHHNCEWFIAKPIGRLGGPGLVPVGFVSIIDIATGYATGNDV
# Rvs167, P39743, sequence (P39743 419-482): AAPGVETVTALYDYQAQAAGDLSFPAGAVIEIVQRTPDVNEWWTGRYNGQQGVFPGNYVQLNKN
# Bem1-1, P29366, sequence (P29366 55-141): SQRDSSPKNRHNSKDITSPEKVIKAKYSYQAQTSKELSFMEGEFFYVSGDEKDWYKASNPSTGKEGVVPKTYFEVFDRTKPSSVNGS
# Sho1, P40073, sequence (P40073 287-367): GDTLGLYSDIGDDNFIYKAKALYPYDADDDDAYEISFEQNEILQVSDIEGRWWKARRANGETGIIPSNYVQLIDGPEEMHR
Binder,SPOT intensity [1],SPOT intensity [2],SPOT intensity [3],SPOT intensity [4],SPOT intensity [5],SPOT intensity [6],SPOT intensity [7],SPOT intensity [8],SPOT intensity [9],SPOT intensity [10],SPOT intensity [11],SPOT intensity [12],SPOT intensity [13],SPOT intensity [14],SPOT intensity [15],SPOT intensity [16],SPOT intensity [17],SPOT intensity [18],SPOT intensity [19],SPOT intensity [20],also measured
FYHRPAPKPPVTKKV,114,45,0,4210,0,0,0,16,186,0,0,0,0,0,78,63,5,3,37,12,SPOT intensity [21]: 314; SPOT intensity [22]: 143; SPOT intensity [23]: 19; SPOT intensity [24]: 0; SPOT intensity [25]: 8; SPOT intensity [26]: 0; SPOT intensity [27]: 2040
YLTRPLPSTPNEDSR,0,0,0,12,0,1,1,0,0,0,0,0,0,0,6,8,139,598,0,0,SPOT intensity [21]: 0; SPOT intensity [22]: 297; SPOT intensity [23]: 0; SPOT intensity [24]: 15; SPOT intensity [25]: 1320; SPOT intensity [26]: 0; SPOT intensity [27]: 1
NTMKKRPAPPSLPSL,205,15,0,56,7,2,21,60,1440,58,1,0,0,489,53,52,12,63,99,115,SPOT intensity [21]: 120; SPOT intensity [22]: 80; SPOT intensity [23]: 57; SPOT intensity [24]: 9; SPOT intensity [25]: 95; SPOT intensity [26]: 1; SPOT intensity [27]: 11
RKRAPTPPAPSRSEK,274,105,1,0,1,0,6,27,946,15,1,14,1,0,3,1290,8,29,20,0,SPOT intensity [21]: 283; SPOT intensity [22]: 6; SPOT intensity [23]: 7; SPOT intensity [24]: 9; SPOT intensity [25]: 99; SPOT intensity [26]: 0; SPOT intensity [27]: 24
DRIRMFIRFPKFLLE,108,43,0,20,7,3,8,0,0,77,2,39,0,21,17,4,6,7,18,2,SPOT intensity [21]: 52; SPOT intensity [22]: 38; SPOT intensity [23]: 30; SPOT intensity [24]: 0; SPOT intensity [25]: 71; SPOT intensity [26]: 0; SPOT intensity [27]: 24
MAMRPIPPLPTESEY,6,0,0,0,0,1,0,0,2,0,0,0,0,1560,0,174,131,278,7,27,SPOT intensity [21]: 0; SPOT intensity [22]: 235; SPOT intensity [23]: 4; SPOT intensity [24]: 1460; SPOT intensity [25]: 30; SPOT intensity [26]: 0; SPOT intensity [27]: 0
